Data on one molecule can be found in patent US7326418B2, “Identification of novel factors that block programmed cell death or apoptosis by targeting JNK” (University of Chicago, priority 2001, dated 2008).

The target of this assay is T1, MEKK4 (Mus musculus, UniProt O08648).
T1 construct: plasmids encoding full-length (FL) human ASK1, MEKK4, JNKK1, and JNKK2; made in house; host or cells: TNT coupled reticulocyte lysate (Promega), in vitro transcription/translation from pBS
Kind of assay: GST pull-down, GST-Gadd45β beads with in vitro translated 35S-labeled MEKK4. The format is binding, murine. As for the experimental part:
To confirm the above interactions, in vitro, GST pull-down experiments were performed. pBluescript (pBS) plasmids encoding full-length (FL) human ASK1, MEKK4, JNKK1, and JNKK2, or polypeptides derived from the amino- or carboxy-terminal portions of ASK1 (i.e. N-ASK1, spanning from amino acids 1 to 756, and C-ASK1, spanning from amino acids 648 to 1375) were transcribed and translated in vitro using the TNT coupled retyculocyte lysate system (Promega) in the presence of ^35S-methionine. 5 μl of each translation mix were incubated, in vitro, with sepharose-4B beads that had been coated with either purified glutathione-S-transferase (GST) polypeptides or GST-Gadd45β proteins. The latter proteins contained FL murine Gadd45β directly fused to GST. Binding assays were performed according to standard procedures, and ^35S-labeled proteins that bound to beads, as well as 2 μl of each in vitro translation mix (input), were then resolved by SDS polyacrylamide gel electrophoresis. Asterisks indicate the intact translated products. […] Thus, GST pull-down experiments confirmed the strong interaction between Gadd45β and JNKK2 observed in vivo, as well as the weaker interactions of Gadd45β with other kinases in the JNK pathway. These assays also uncovered a weak association between Gadd45β and JNKK1. […]

T1 sequence (O08648 whole entry): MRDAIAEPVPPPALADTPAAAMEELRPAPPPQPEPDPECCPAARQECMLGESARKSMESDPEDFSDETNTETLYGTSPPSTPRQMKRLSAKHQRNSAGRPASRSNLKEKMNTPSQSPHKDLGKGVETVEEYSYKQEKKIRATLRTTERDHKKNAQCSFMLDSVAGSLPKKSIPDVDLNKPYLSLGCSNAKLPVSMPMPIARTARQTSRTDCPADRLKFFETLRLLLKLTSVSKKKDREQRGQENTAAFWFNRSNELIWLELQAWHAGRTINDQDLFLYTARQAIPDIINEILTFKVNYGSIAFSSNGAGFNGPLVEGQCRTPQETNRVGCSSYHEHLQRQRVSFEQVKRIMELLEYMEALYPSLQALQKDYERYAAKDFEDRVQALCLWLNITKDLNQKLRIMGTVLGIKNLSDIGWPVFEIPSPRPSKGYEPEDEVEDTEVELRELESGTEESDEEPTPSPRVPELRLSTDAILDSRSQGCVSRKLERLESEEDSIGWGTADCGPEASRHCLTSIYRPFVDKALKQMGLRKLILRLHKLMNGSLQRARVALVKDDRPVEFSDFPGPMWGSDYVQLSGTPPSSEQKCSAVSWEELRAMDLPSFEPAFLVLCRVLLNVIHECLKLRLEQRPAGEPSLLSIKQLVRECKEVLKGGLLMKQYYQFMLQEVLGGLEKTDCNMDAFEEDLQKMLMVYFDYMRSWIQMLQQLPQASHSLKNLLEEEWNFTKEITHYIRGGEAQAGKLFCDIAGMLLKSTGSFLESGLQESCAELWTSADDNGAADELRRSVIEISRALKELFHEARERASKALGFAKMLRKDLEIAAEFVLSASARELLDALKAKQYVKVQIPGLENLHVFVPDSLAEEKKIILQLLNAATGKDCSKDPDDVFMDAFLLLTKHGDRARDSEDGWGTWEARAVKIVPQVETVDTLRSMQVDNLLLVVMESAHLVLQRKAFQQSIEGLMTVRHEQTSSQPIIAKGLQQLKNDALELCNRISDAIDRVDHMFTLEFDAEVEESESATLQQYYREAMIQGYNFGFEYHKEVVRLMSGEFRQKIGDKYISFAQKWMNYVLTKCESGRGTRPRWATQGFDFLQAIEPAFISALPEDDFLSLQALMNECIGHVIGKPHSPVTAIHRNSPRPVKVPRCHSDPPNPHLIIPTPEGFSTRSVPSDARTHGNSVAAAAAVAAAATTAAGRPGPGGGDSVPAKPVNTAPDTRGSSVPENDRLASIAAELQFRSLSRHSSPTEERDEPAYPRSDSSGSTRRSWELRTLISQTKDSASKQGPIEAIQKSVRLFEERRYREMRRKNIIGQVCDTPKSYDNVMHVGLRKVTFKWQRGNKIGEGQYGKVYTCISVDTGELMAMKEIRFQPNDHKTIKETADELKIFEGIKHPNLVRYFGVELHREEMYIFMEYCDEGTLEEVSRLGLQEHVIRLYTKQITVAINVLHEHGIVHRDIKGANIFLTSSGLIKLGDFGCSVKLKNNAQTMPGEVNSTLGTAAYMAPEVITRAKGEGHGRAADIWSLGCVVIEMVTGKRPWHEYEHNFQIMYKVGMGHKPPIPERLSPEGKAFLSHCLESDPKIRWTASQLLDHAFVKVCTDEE

B1: GST-Gadd45β: full-length murine Gadd45β directly fused to GST, purified from E. coli (protein)
chain: MTLEELVASDNAVQKMQAVTAAVEQLLVAAQRQDRLTVGVYEAAKLMNVDPDSVVLCLLAIDEEEEDDIALQIHFTLIQSFCCDNDIDIVRVSGMQRLAQLLGEPAETLGTTEARDLHCLLVTNCHTDSWKSQGLVEVASYCEESRGNNQWVPYISLEER
modifications: left off: a dimerising Fc or GST
notes: full-length murine Gadd45β directly fused to GST, purified from E. coli
B1: the “association with MEKK4” value is on record as “less avidly than with JNKK2”.
